Data reported in publication PMC11388335.

Legend:
[1] = molecular target: PP1^Clover (PP1γ catalytic subunit fused to the FRET donor Clover) (human) (UniProt P36873); assay: FRET or BRET; binary complexes SDS22^TAMRA-PP1^Clover (SP) or PP1^Clover-I3^TAMRA (PI) lacking the other subunit, incubated with p97, p37, ATP and NIPP1 as in a3
[2] = molecular target: PP1^Clover (PP1γ catalytic subunit fused to the FRET donor Clover) (human) (UniProt P36873); assay: FRET or BRET; ternary complexes SDS22^TAMRA-PP1^Clover-I3 or SDS22-PP1^Clover-I3^TAMRA (160 nM); FRET while the complex is formed, lost with p97 (160 nM), p37 (480 nM), ATP (2 mM) and unlabeled NIPP1 (240 nM); p97 buffer + 2% BSA + 1 mM DTT, 30 °C
[3] = molecular target: PP1^Clover (PP1γ catalytic subunit fused to the FRET donor Clover) (human) (UniProt P36873); assay: FRET or BRET; in vitro subunit exchange: SDS22-PP1^Clover-I3 (160 nM) with p97 (160 nM), p37 (480 nM), ATP (2 mM) and NIPP1^TAMRA (240 nM); p97 buffer + 2% BSA + 1 mM DTT, 30 °C; rise of acceptor/donor ratio
[4] = molecular target: His-PP1γ^Clover (PP1 of the binary SP and NP complexes) (human) (UniProt P36873); assay: FRET or BRET; binary complexes SDS22^TAMRA-PP1^Clover (SP) or PP1^Clover-I3^TAMRA (PI) lacking the other subunit, incubated with p97, p37, ATP and NIPP1 as in a3

Molecule | rate constant of p97-p37-mediated dissociation, binary complex without SDS22 (exponential fit of FRET) [1] [min⁻¹] | rate constant of p97-p37-mediated dissociation (exponential fit of FRET) [2] [min⁻¹] | rate constant of p97-p37-mediated dissociation, ternary complex (exponential fit of FRET) [2] [min⁻¹] | rate constant of NIPP1 association after p97-p37-mediated release of PP1 (exponential fit of FRET) [3] [min⁻¹] | rate constant of dissociation with p97-p37, binary complex without I3 (exponential fit of FRET) [4] [min⁻¹]
I3^TAMRA (His-I3-LPETGGG labeled by sortase with a TAMRA Strep-tag peptide) (from UniProt O60927 1-126) (natural protein) | 0.0734 | 0.69 | 0.644 | – | –
NIPP1^TAMRA (His-NIPP1-LPETGGG labeled by sortase with a TAMRA Strep-tag peptide) (from UniProt Q12972 1-351) (natural protein) | – | – | – | 0.33 | –
SDS22^TAMRA (GGG-SDS22 labeled by sortase with a TAMRA Strep-tag peptide) (natural protein, TAMRA on the ligated peptide (TAMRA)-…) MAAERGAGQQQSQEMMEVDRRVESEESGDEEGKKHSSGIVADLSEQSLKDGEERGEEDPEEEHELPVDMETINLDRDAEDVDLNHYRIGKIEGFEVLKKVKTLCLRQNLIKCIENLEELQSLRELDLYDNQIKKIENLEALTELEILDISFNLLRNIEGVDKLTRLKKLFLVNNKISKIENLSNLHQLQMLELGSNRIRAIENIDTLTNLESLFLGKNKITKLQNLDALTNLTVLSMQSNRLTKIEGLQNLVNLRELYLSHNGIEVIEGLENNNKLTMLDIASNRIKKIENISHLTELQEFWMNDNLLESWSDLDELKGARSLETVYLERNPLQKDPQYRRKVMLALPSVRQIDATFVRF | – | 0.64 | 0.714 | – | 0.0003
